Laboratory results published in PMC7367873, “Dissecting the sequence determinants for dephosphorylation by the catalytic subunits of phosphatases PP1 and PP2A” (Nature Communications, 2020).
Values belong to the molecule of their own block, whether it stands above or below them.

Tests used:
[1] = tested on: GFP-14-3-3β and its binding proteins; test: GFP-14-3-3β co-IP with LC-MS/MS label-free quantification, untreated versus PP1c-treated; design: species or system human; details: 3 replicates each
GFP-14-3-3β = GFP-14-3-3β co-IP with LC-MS/MS, untreated GFP-14-3-3β versus GFP control (14-3-3 interactome); type: binding, human; details: 3 replicates each
[2] = PP1 vs untreated, LFQ intensities
[3] = untreated vs GFP, LFQ intensities

B2: BBX (protein, UniProt Q8WY36 1-941, looked up)
HMG box transcription factor …: MKGSNRNKDHSAEGEGVGKRPKRKCLQWHPLLAKKLLDFSEEEEEEDEEEDIDKVQLLGADGLEQDVGETEDDESPEQRARRPMNAFLLFCKRHRSLVRQEHPRLDNRGATKILADWWAVLDPKEKQKYTDMAKEYKDAFMKANPGYKWCPTTNKPVKSPTPTVNPRKKLWAFPSDSSRDLPSPKKAKTEEMPQLNFGMADPTQMGGLSMLLLAGEHALGTPEVSSGTCRPDVSESPELRQKSPLFQFAEISSSTSHSDASTKQCQTSALFQFAEISSNTSQLGGAEPVKRCGKSALFQLAEMCLASEGMKMEESKLIKAKESDGGRIKELEKGKEEKEIKMEKTDETRLQKEAEFEKSAKENLRDSKELRNFEALQIDDIMAIKMEDPKEIRKEELEEDHKCSHFPDFSYSASSKIIISDVPSRKDHMCHPHGIMIIEDPAALNKPEKLKKKKKKSKMDRHGNDKSTPKKTCKKRQSSESDIESVIYTIEAVAKGDWGIEKLGDTPRKKVRTSSSGKGSILDAKPPKKKVKSREKKMSKEKSSDTTKESRPPDFISISASKNISGETPEGIKAEPLTPMEDALPPSLSGQAKPEDSDCHRKIETCGSRKSERSCKGALYKTLVSEGMLTSLRANVDRGKRSSGKGNSSDHEGCWNEESWTFSQSGTSGSKKFKKTKPKEDCLLGSAKLDEEFEKKFNSLPQYSPVTFDRKCVPVPRKKKKTGNVSSEPTKTSKGPFQSQKKNLFHKIVSKYKHKKEKPNVPEKGSGDKWSNKQLFLDAIHPTEAIFSEDRNTMEPVHKVKNIPSIFNTPEPTTTQEPLVGSQKRKARKTKITHLVRTADGRVSPAGGTLDDKPKEQLQRSLPKATETDCNDKCSHNTEVGETRSSTPEMPAVSAFFSLAALAEVAAMENVHRGQRSTPLTHDGQPKEMPQAPVLISCADQ
- Difference (log2), PP1 vs untreated [1, 2]: 0.6283 log2
- Difference (log2), untreated vs GFP (GFP-14-3-3β; [3]): 0.1239 log2

B3: DDX3X;DDX3Y (protein, UniProt O00571 2-662, looked up)
ATP-dependent RNA helicase …: SHVAVENALGLDQQFAGLDLNSSDNQSGGSTASKGRYIPPHLRNREATKGFYDKDSSGWSSSKDKDAYSSFGSRSDSRGKSSFFSDRGSGSRGRFDDRGRSDYDGIGSRGDRSGFGKFERGGNSRWCDKSDEDDWSKPLPPSERLEQELFSGGNTGINFEKYDDIPVEATGNNCPPHIESFSDVEMGEIIMGNIELTRYTRPTPVQKHAIPIIKEKRDLMACAQTGSGKTAAFLLPILSQIYSDGPGEALRAMKENGRYGRRKQYPISLVLAPTRELAVQIYEEARKFSYRSRVRPCVVYGGADIGQQIRDLERGCHLLVATPGRLVDMMERGKIGLDFCKYLVLDEADRMLDMGFEPQIRRIVEQDTMPPKGVRHTMMFSATFPKEIQMLARDFLDEYIFLAVGRVGSTSENITQKVVWVEESDKRSFLLDLLNATGKDSLTLVFVETKKGADSLEDFLYHEGYACTSIHGDRSQRDREEALHQFRSGKSPILVATAVAARGLDISNVKHVINFDLPSDIEEYVHRIGRTGRVGNLGLATSFFNERNINITKDLLDLLVEAKQEVPSWLENMAYEHHYKGSSRGRSKSSRFSGGFGARDYRQSSGASSSSFSSSRASSSRSGGGGHGSSRGFGGGGYGGFYNSDGYGGNYNSQGVDWWGN
modifications: or DDX3Y
- Difference (log2), PP1 vs untreated [1, 2]: 0.6546 log2
- Difference (log2), untreated vs GFP (GFP-14-3-3β; [3]): 0.1796 log2

B4: DDX20 (protein, UniProt Q9UHI6 1-824, looked up)
Probable ATP-dependent RNA …: MAAAFEASGALAAVATAMPAEHVAVQVPAPEPTPGPVRILRTAQDLSSPRTRTGDVLLAEPADFESLLLSRPVLEGLRAAGFERPSPVQLKAIPLGRCGLDLIVQAKSGTGKTCVFSTIALDSLVLENLSTQILILAPTREIAVQIHSVITAIGIKMEGLECHVFIGGTPLSQDKTRLKKCHIAVGSPGRIKQLIELDYLNPGSIRLFILDEADKLLEEGSFQEQINWIYSSLPASKQMLAVSATYPEFLANALTKYMRDPTFVRLNSSDPSLIGLKQYYKVVNSYPLAHKVFEEKTQHLQELFSRIPFNQALVFSNLHSRAQHLADILSSKGFPAECISGNMNQNQRLDAMAKLKHFHCRVLISTDLTSRGIDAEKVNLVVNLDVPLDWETYMHRIGRAGRFGTLGLTVTYCCRGEEENMMMRIAQKCNINLLPLPDPIPSGLMEECVDWDVEVKAAVHTYGIASVPNQPLKKQIQKIERTLQIQKAHGDHMASSRNNSVSGLSVKSKNNTKQKLPVKSHSECGIIEKATSPKELGCDRQSEEQMKNSVQTPVENSTNSQHQVKEALPVSLPQIPCLSSFKIHQPYTLTFAELVEDYEHYIKEGLEKPVEIIRHYTGPGDQTVNPQNGFVRNKVIEQRVPVLASSSQSGDSESDSDSYSSRTSSQSKGNKSYLEGSSDNQLKDSESTPVDDRISLEQPPNGSDTPNPEKYQESPGIQMKTRLKEGASQRAKQSRRNLPRRSSFRLQTEAQEDDWYDCHREIRLSFSDTYQDYEEYWRAYYRAWQEYYAAASHSYYWNAQRHPSWMAAYHMNTIYLQEMMHSNQ
- Difference (log2), PP1 vs untreated ([1]; log2 difference, pairwise comparison PP1 vs untreated, label-free quantification): 2.218
- Difference (log2), untreated vs GFP (GFP-14-3-3β; log2 difference, pairwise comparison untreated vs GFP, label-free quantification): -0.1781

The next lines start with results.

- Difference (log2), PP1 vs untreated [1, 2]: 0.6296 log2
B1: NOP58 (protein, UniProt Q9Y2X3 1-529, looked up)
Nucleolar protein 58: MLVLFETSVGYAIFKVLNEKKLQEVDSLWKEFETPEKANKIVKLKHFEKFQDTAEALAAFTALMEGKINKQLKKVLKKIVKEAHEPLAVADAKLGGVIKEKLNLSCIHSPVVNELMRGIRSQMDGLIPGVEPREMAAMCLGLAHSLSRYRLKFSADKVDTMIVQAISLLDDLDKELNNYIMRCREWYGWHFPELGKIISDNLTYCKCLQKVGDRKNYASAKLSELLPEEVEAEVKAAAEISMGTEVSEEDICNILHLCTQVIEISEYRTQLYEYLQNRMMAIAPNVTVMVGELVGARLIAHAGSLLNLAKHAASTVQILGAEKALFRALKSRRDTPKYGLIYHASLVGQTSPKHKGKISRMLAAKTVLAIRYDAFGEDSSSAMGVENRAKLEARLRTLEDRGIRKISGTGKALAKTEKYEHKSEVKTYDPSGDSTLPTCSKKRKIEQVDKEDEITEKKAKKAKIKVKVEEEEEEKVAEEEETSVKKKKKRGKKKHIKEEPLSEEEPCTSTAIASPEKKKKKKKKRENED
- Difference (log2), untreated vs GFP (GFP-14-3-3β; [3]): 1.325 log2

- Difference (log2), PP1 vs untreated [1, 2]: 0.5963 log2
B5: RASAL2 (protein, UniProt Q9UJF2 1-1139, looked up)
Ras GTPase-activating protein …: MQTPEVPAERSPRRRSISGTSTSEKPNSMDTANTSPFKVPGFFSKRLKGSIKRTKSQSKLDRNTSFRLPSLRSTDDRSRGLPKLKESRSHESLLSPCSTVECLDLGRGEPVSVKPLHSSILGQDFCFEVTYLSGSKCFSCNSASERDKWMENLRRTVQPNKDNCRRAENVLRLWIIEAKDLAPKKKYFCELCLDDTLFARTTSKTKADNIFWGEHFEFFSLPPLHSITVHIYKDVEKKKKKDKNNYVGLVNIPTASVTGRQFVEKWYPVSTPTPNKGKTGGPSIRIKSRFQTITILPMEQYKEFAEFVTSNYTMLCSVLEPVISVRNKEELACALVHILQSTGRAKDFLTDLVMSEVDRCGEHDVLIFRENTIATKSIEEYLKLVGQQYLHDALGEFIKALYESDENCEVDPSKCSSSELIDHQSNLKMCCELAFCKIINSYCVFPRELKEVFASWKQQCLNRGKQDISERLISASLFLRFLCPAIMSPSLFNLMQEYPDDRTSRTLTLIAKVIQNLANFAKFGNKEEYMAFMNDFLEHEWGGMKRFLLEISNPDTISNTPGFDGYIDLGRELSVLHSLLWEVVSQLDKGENSFLQATVAKLGPLPRVLADITKSLTNPTPIQQQLRRFTEHNSSPNVSGSLSSGLQKIFEDPTDSDLHKLKSPSQDNTDSYFRGKTLLLVQQASSQSMTYSEKDERESSLPNGRSVSLMDLQDTHAAQVEHASVMLDVPIRLTGSQLSITQVASIKQLRETQSTPQSAPQVRRPLHPALNQPGGLQPLSFQNPVYHLNNPIPAMPKASIDSSLENLSTASSRSQSNSEDFKLSGPSNSSMEDFTKRSTQSEDFSRRHTVPDRHIPLALPRQNSTGQAQIRKVDQGGLGARAKAPPSLPHSASLRSTGSMSVVSAALVAEPVQNGSRSRQQSSSSRESPVPKVRAIQRQQTQQVQSPVDSATMSPVERTAAWVLNNGQYEEDVEETEQNLDEAKHAEKYEQEITKLKERLRVSSRRLEEYERRLLVQEQQMQKLLLEYKARLEDSEERLRRQQEEKDSQMKSIISRLMAVEEELKKDHAEMQAVIDAKQKIIDAQEKRIVSLDSANTRLMSALTQVKERYSMQVRNGISPTNPTKLSITENGEFKNSSC
- Difference (log2), untreated vs GFP (GFP-14-3-3β; [3]): 1.812 log2

- Difference (log2), PP1 vs untreated [1, 2]: 0.6094 log2
B6: MMS19 (protein, UniProt Q96T76 2-1030, looked up)
MMS19 nucleotide excision …: AAAAAVEAAAPMGALWGLVHDFVVGQQEGPADQVAADVKSGNYTVLQVVEALGSSLENPEPRTRARAIQLLSQVLLHCHTLLLEKEVVHLILFYENRLKDHHLVIPSVLQGLKALSLCVALPPGLAVSVLKAIFQEVHVQSLPQVDRHTVYNIITNFMRTREEELKSLGADFTFGFIQVMDGEKDPRNLLVAFRIVHDLISRDYSLGPFVEELFEVTSCYFPIDFTPPPNDPHGIQREDLILSLRAVLASTPRFAEFLLPLLIEKVDSEVLSAKLDSLQTLNACCAVYGQKELKDFLPSLWASIRREVFQTASERVEAEGLAALHSLTACLSRSVLRADAEDLLDSFLSNILQDCRHHLCEPDMKLVWPSAKLLQAAAGASARACDSVTSNVLPLLLEQFHKHSQSSQRRTILEMLLGFLKLQQKWSYEDKDQRPLNGFKDQLCSLVFMALTDPSTQLQLVGIRTLTVLGAQPDLLSYEDLELAVGHLYRLSFLKEDSQSCRVAALEASGTLAALYPVAFSSHLVPKLAEELRVGESNLTNGDEPTQCSRHLCCLQALSAVSTHPSIVKETLPLLLQHLWQVNRGNMVAQSSDVIAVCQSLRQMAEKCQQDPESCWYFHQTAIPCLLALAVQASMPEKEPSVLRKVLLEDEVLAAMVSVIGTATTHLSPELAAQSVTHIVPLFLDGNVSFLPENSFPSRFQPFQDGSSGQRRLIALLMAFVCSLPRNVEIPQLNQLMRELLELSCCHSCPFSSTAAAKCFAGLLNKHPAGQQLDEFLQLAVDKVEAGLGSGPCRSQAFTLLLWVTKALVLRYHPLSSCLTARLMGLLSDPELGPAAADGFSLLMSDCTDVLTRAGHAEVRIMFRQRFFTDNVPALVQGFHAAPQDVKPNYLKGLSHVLNRLPKPVLLPELPTLLSLLLEALSCPDCVVQLSTLSCLQPLLLEAPQVMSLHVDTLVTKFLNLSSSPSMAVRIAALQCMHALTRLPTPVLLPYKPQVIRALAKPLDDKKRLVRKEAVSARGEWFLLGSPGS
- Difference (log2), untreated vs GFP (GFP-14-3-3β; [3]): 1.425 log2
